Reference: patent US20240043504A1 (published 2024)

B1: mAb10921 (antibody, V domains shown)
VH: EVQLVESGGGLVQPGGSLRLSCAASGITVSSNYMSWVRQAPGKGLEWVSVIYSGGSTFYADSVKGRFTISRHNSKNTLYLQMNSLRAEDTAVYYCARERNFDAFDIWGQGTMVTVSS
VL: DIQMTQSPSSVSASVGDRVTITCRASQGISSWLAWYQQKPGKAPKLLIYAASSLQSGVPSRFSGSGSGTDFTLTISSLQPEDFATYYCQQANSFPLFTFGPGTKVDIKR
B2: mAb10939 (antibody, V domains shown)
VH: EVQLVESGGGLVQPGGSLRLSCAASGLTVSSNYMNWVRQVPGKGLEWVSVIYSGGSKFYVDSVKGRFTISRHNSKNTLYLQMNSLRPEDTAVYYCTRDAQYYGMDVWGQGTTVTVSS
VL: DIQMTQSPSSLSASVGDRVTITCRASQSISTYLHWYQQKPGEAPKLLIYAASSLQSGVPSRFSGSGSGTDFTLTISSLQPEDFATYYCQQSYSTPPEIFGQGTKLEIKR
B3: mAb10998 (antibody, V domains shown)
VH: EVQLVESGGGLVHPGGSLRLSCAASGLTVSSNYMSWVRQAPGKGLEWVSVIYSGGSTYYADSVKGRFTISRHNSKNTLFLQMNSLRAEDTAVYYCARDRPITGTTLDVWGQGTTVTVSS
VL: DIQMTQSPSSLFASVGDRVTITCRASQSISSYLNWYQQKPGKAPKLLIYAASSLQSGVPSRFSGSGSGTDFTLTISSLQPEDFAFYYCQQTYSTPPITFGQGTRLEIKR
B4: mAb10989 (antibody, V domains shown)
VH: QVQLVQSGAEVKKPGASVKVSCKASGYIFTGYYMHWVRQAPGQGLEWMGWINPNSGGANYAQKFQGRVTLTRDTSITTVYMELSRLRFDDTAVYYCARGSRYDWNQNNWFDPWGQGTLVTVSS
VL: QSALTQPASVSGSPGQSITISCTGTSSDVGTYNYVSWYQQHPGKAPKLMIFDVSNRPSGVSDRFSGSKSGNTASLTISGLQAEDEADYYCSSFTTSSTVVFGGGTKLTVLG
B5: mAb10936 (antibody, V domains shown)
VH: QVQLVESGGGVVQPGRSLRLSCAASGFTFRNYGMHWVRQAPGKGLEWVSVIWYDGSNRYYADSVKGRFTISRDTSKNTLYLQMNSLRAEDTAVYYCARDPPITGTTGGDAFDIWGQGTMVTVSS
VL: not shown
B6: mAb11006 (antibody, V domains shown)
VH: EVQLVESGGGLVQPGGSLRLSCAASGFIVSRNYMSWVRQAPGKGLEWVSVIYSGGSTFYADSVKGRFTISRHNSKNTLYLQMNSLKAEDTAVYYCARELRGYFDYWGQGTLVTVSS
VL: DIQLTQSPSFLSASVGDRVTITCWASQGISSYLAWYQQKPGKAPKLLIYAASTLQSGVPSRFSGSGSGTEFTLTISSLQPEDFATYYCQLLNSYPYTFGQGTKLEIKR
B7: mAb11008 (antibody, V domains shown)
VH: EVQLVESGGGLVQPGGSLRLSCAASGFTVSSNYMTWVRQAPGKGLEWVSVIYSGGSTFYADSVKGRFTISRHNSENTLYLQMNSLRAEDTAVYYCARDLAAAGTDYWGQGALVTVSS
VL: DIQLTQSPSFLSASVGDRVTITCWASQGISSYLAWYQQKPGKAPKLLIYAASTLQSGVPSRFSGSGSGTEFTLTISSLQPDDFATYYCQHLNSYLYTFGQGTKLEIKR
B8: mAb10982 (antibody, V domains shown)
VH: EVQLVESGGGLVQPGGSLRLSCAASGLTVSSNYMSWVRQAPGKGLEWVSVIYSGGTTYYADSVKGRFTISRHNSKNTLSLQMNSLRAEDTAVYYCARGEGANYYGMDVWGQGTTVTVSS
VL: QSVLTQPPSVSGAPGQRVTISCTGSSSNIGTGYDVHWYQQLPGTAPKLLIYGNSNRPSGVPDRFSGSKSGTSASLAITGLQAEDEADYYCQSYDSSLSGYVVFGGGTKLTVLG
B9: mAb10986 (antibody, V domains shown)
VH: EVQLVESGGGLVQPGGSLRLSCAASEFTVSSNYMSWVRQAPGKGLEWVSVIYSGGSTFYADSVKGRFTISRDNSKNTLYLQMNSLRAEDTAVYYCARALPYGDLHFDYWGQGTLVTVSS
VL: QSVLTQPPSVSGAPGQRVTISCTGSSSNIGTGYDVHWYQQLPGTAPKLLIYGNTNRPSGVPDRFSGSKSGTSASLAITGLQAEDEADYYCQSYDSSLSDSYVFGTGTKVTVLG
B10: mAb11010 (antibody, V domains shown)
VH: QVQLVESGGGVVQPGRSLRLSCAASGFTFSSYGMHWVRQAPGKGLEWVAVISYDGSYKYYADSVKGRFTISRDNSKNTLYLQMNSLRAEDTAVYYCAIDGGTVTTIFDYWGQGTLVTVSS
VL: not shown
B11: mAb11002 (antibody, V domains shown)
VH: EVQLVESGGGLVQPGGSLRLSCAASGFTVSSNYMSWVRQAPGKGLEWVSVIYSGGSTFYADSVKGRFTISRHNSKNTLYLQMNSLRAEDTAVYYCAREGYGMDVWGQGTTVTVSS
VL: not shown
B12: mAb10930 (antibody, V domains shown)
VH: EVQLVESGGGLVQPGRSLRLSCAASGFTFDDYAMYWVRQAPGKGLEWVSGISWNSGSIGYADSVKGRFTISRDNAKNSLYLQMNSLRAADTALYYCAKDKDWNSRGYYYYGMDVWGQGTTVTVSS
VL: not shown
B13: mAb10937 (antibody, V domains shown)
VH: QITLKESGPTLVKPTQTLTLTCTFSGFSLSTNVVGVGWIRQPPGKALEWLALIYWNDDKRYSPSLKSRLTITKDTSKNQVVLTMTNMDPVDTATYYCAHGPTGDYFDYWGQGTLVTVSS
VL: not shown
B14: mAb10934 (antibody, V domains shown)
VH: not shown
VL: DIQMTQSPSSLSASVGDRVTITCQASQDIWNYINWYQQKPGKAPKLLIYDASNLKTGVPSRFSGSGSGTDFTFTISSLQPEDIATYYCQQHDDLPPTFGQGTKVEIKR
B15: mAb10935 (antibody, V domains shown)
VH: EVQLVESGGGLVQPGGSLRLSCAASGFTVSSNYMSWVRQAPGKGLEWVSLIYSGGSTYYADSVKGRFTISRHNSKNTLYLQMNSLRSEDTAVYYCARVPLGDYYYGMDVWGQGTTVTVSS
VL: DIQMTQSPSSLSASVGDRVTITCQASQDINKYLNWYQQKPGKAPKLLIYDASNLETGVPSRFSGSGSGTDFTFTISSLQPEDIATYYCQQSDNLPLTFGGGTKVEIKR
B16: mAb10938 (antibody, V domains shown)
VH: EVQLVESGGGLVQPGGSLRLSCAVSGFTVSSNYMSWVRQAPGKGLEWVSLIYSGGSTFYADSVKGRFTISRHNSKNTLYLQMNSLRAEDTAVYYCAREGGYSYDYNYWGQGTLVTVSS
VL: DIQMTQSPSSLSASVGDRVTITCQASQDIRNYLNWYQQKPGKAPKLLIYDASNLETGVPSRFSGIGSGTDFTFTISSLQPEDIATYYCQQYDNLPITFGQGTRLEIKR
B17: mAb10923 (antibody, V domains shown)
VH: QVQLVQSGAEVKKPGASVKVSCKASGYTFINYYIHWVRQAPGQGLEWMGWINPNSGGTNYAQKFQGRVTMTRDTSISTAYMELSRLRSDDTAVYYCAIITIFGVVTWFDPWGQGTLVTVSS
VL: not shown
B18: mAb10920 (antibody, V domains shown)
VH: QVQLVESGGGVVQPGRSLRLSCAASGFTFSYYGMHWVRQAPGKGLEWVAVIWYDGSNKFYADSVKGRFTISRDNSKNTLYLQMNSLRAEDTAVYYCAAARPGYYYGMDVWGQGTTVTVSS
VL: DIQMTQSPSSLSASVGDRVTITCRASQGISNYLAWFQQKPGKAPNSLIYAASSLQRGVPSKFSGSGSGTDFTLTISSLQPEDFATYYCQQYNSYPRTFGQGTKVEIKR
B19: mAb10913 (antibody, V domains shown)
VH: EVQLVESGGGLVQPGGSLRLSCAASGFTFRNYEMNWVRQAPGKGLEWVSYITSSGSTMYYADSVKGRFTISRDNAKNSLYLQMNSLRAEDTAVYYCARDGFYYYYAMDVWGQGTTVTVSS
VL: QSVLTQPPSVSAAPGQKVTISCSGSSSNIGNNYVSWYQQLPGTAPKLLIYDNNKRPSGIPDRFSGSKSGTSATLGITGLQTGDEADYYCGTWDSSLSVGRVFGTGTKVTVLG
B20: mAb11004 (antibody, V domains shown)
VH: QVQLVESGGGVVQPGRSLRLSCVASGFTFSIYGMDWVRQAPGKGLEWVAVISYDGSNKYYADSVKGRFTISRDNSKNTLYLQMNSLRPEDTAVYYCAKDREAAADAFDIWGQGTMVTVSS
VL: DIQMTQSPSSVSASVGDRVTITCRASQGISSWLAWYQQKPGKAPKLLIYAASSLHSGVPSRFSGSGSGTDFTLTISSLQPEDFATYYCQQANSFRLTFGGGTKVEIKR
B21: mAb10932 (antibody, V domains shown)
VH: EVQLVESGGGLVQSGGSLRLSCAASGLTVSSNYMSWVRQAPGKGLEWVSVIYSGGSTFYSDSVKGRFTISRHNSKNTLYLQMNSLRAEDTAVYYCARARGDAFDIWGQGTMVTVSS
VL: not shown
B22: mAb10984 (antibody, V domains shown)
VH: EVQLVESGGGLVQPGGSLRLSCAASGLTVNRNYMSWVRQAPGKGLEWVSLIYSGGSTYYADSVKGRFTISRDNSKNTLYLQMNSLRLEDTAVYYCARGELGIPYGMDVWGQGTTVTVSS
VL: QSVLTQPPSVSAAPGQKVTISCSGSSSNIGNNYVSWYQQLPGTAPKLLIYDNNKRPSGIPDRFSGSKSGTSATLGITGLQTGDEADYYCGTWDSSLSAGVFGGGTKLTVLG

How the values were obtained:
[1] = target: SARS-CoV-2 RBD extracellular domain expressed with a C-terminal mouse IgG2a (SARS-COV-2 RBD-mFc) (SARS-CoV-2)
[2] = target: SARS-COV-2 RBD extracellular domain expressed with a C-terminal mouse IgG2a (SARS-COV-2 RBD-mFc) (SARS-CoV-2); assay: SPR, captured mAb, RBD-mFc in solution, 37 C

Binder	Kd [1] [pM]	koff [1] [s⁻¹]	kon [1] [M⁻¹ s⁻¹]	t1/2 [1] [h]	Kd [2] [pM]	koff [2] [s⁻¹]	kon [2] [M⁻¹ s⁻¹]	t½ [2] [h]
B1	≤ 37.5	≤ 1e-05	266000	≥ 19.2	–	–	–	–
B2	38.7	1.15e-05	299000	16.7	–	–	–	–
B3	–	–	–	–	22400	0.0197	879000	0.01
B4	–	–	–	–	–	–	–	0.527
B5	≤ 15.3	≤ 1e-05	652000	≥ 19.2	–	–	–	–
B6	–	–	–	–	197	–	–	2.52
B7	–	–	–	–	872	0.000405	464000	0.475
B8	54.4	1.69e-05	310000	11.4	–	–	–	–
B9	–	–	–	–	12.6	–	–	3.32
B10	–	–	–	–	50.5	–	–	2.4
B11	–	–	–	–	32600	–	–	0.0117
B12	≤ 43.1	≤ 1e-05	232000	≥ 19.2	–	–	–	–
B13	114	7.28e-05	639000	2.64	–	–	–	–
B14	83.2	–	–	1.64	–	–	–	–
B15	≤ 26.1	≤ 1e-05	383000	≥ 19.2	–	–	–	–
B16	≤ 32.2	–	–	≥ 19.2	–	–	–	–
B17	43.5	2.83e-05	651000	6.79	–	–	–	–
B18	416	–	–	0.658	–	–	–	–
B19	244	0.000152	623000	1.27	–	–	–	–
B20	–	–	–	–	117	0.000118	1.01e+06	1.63
B21	≤ 41.3	≤ 1e-05	242000	≥ 19.2	–	–	–	–
B22	≤ 24.9	–	–	≥ 19.2	–	–	–	–
